For 23 molecules, Kd and binding score results are on record in PMC9876794 (2022).

For assay [1], the target named is T1, SARS-CoV-2 spike RBD (WT) (Severe acute respiratory syndrome …, UniProt P0DTC2). In words: BLI.
The target of assay [2] is T1, SARS-CoV-2 spike RBD (WT). In words: ELISA. The arrangement: unit not given here.

B1: D165 (antibody, V domains shown)
VH: QVQLVQSGAEVKKPGASVKVSCKASGYTFSNYVINWVRQAPGQRPEWMGWINADNGHTVYSQKLQGRVTITTDTSASEAYMELSGLRSEDTAVYYCARGREDYYNNEPYGMDVWGQGTTVTVSS
VL: DIQMTQSPSSLSASVGDRVTITCRASQTISNYLNWYQQKPGQAPKLLIFAASSLQTGVPSRFSGSGSGTTFTLTISSLQPEDFATYYCQQSYGSLYTFGQGTKLDIK
As to B1, the Kd in assay [1] came out at 117 nM. In assay [2], the binding score stood at 1370.

B2: C2744 (antibody, V domains shown)
VH: EVQLLESGGGLVQTGGSLRLSCAASGFTFSSYAMSWVRQAPGKGLEWVSAISGTGGSTYYADSVKGRFTISRDHSKNTLYLQMNSLRAEDTAVYYCAKPINMIDPHDAFDIWGQGTMVTVSS
VL: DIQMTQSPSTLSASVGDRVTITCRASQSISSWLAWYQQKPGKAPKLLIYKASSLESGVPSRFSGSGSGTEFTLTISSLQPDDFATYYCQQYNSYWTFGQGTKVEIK
The molecule B2 displayed a Kd in assay [1] of 248 nM. Further, the binding score in assay [2] was determined as 5390.

B3: D148 (antibody, V domains shown)
VH: QLQLQESGPGLVKPSETLSLTCTVSGGSISSSSYYWGWIRQPPGKGLEWIGSIYYSGSTYYNPSLKSRVTISVDTSKNQFSLKLSSVTAADTAVYYCARQTIYYDSSGSLEVEPMDVWGQGTTVTVSS
VL: not shown
In assay [1], B3 yielded a Kd of 6.46 nM. This molecule returned a binding score in assay [2] of 29.

B4: D107 (antibody, V domains shown)
VH: QVQLVQSGAEVKKPGASVKVSCKASGYTFTSYDINWVRQATGQGLEWMGWMNPNSGNTGYAQKFQGRVTMTRNPSISTAYMELSSLTSDDTAVYYCATALPWDGYNPYYFHYWGQGTLVTVSS
VL: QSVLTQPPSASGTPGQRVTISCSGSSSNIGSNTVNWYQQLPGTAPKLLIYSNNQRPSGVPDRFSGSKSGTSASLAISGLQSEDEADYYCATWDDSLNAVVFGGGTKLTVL
In assay [2], B4 showed a binding score of more than 10000.

B5: C2695 (antibody, V domains shown)
VH: EVQLVESGGGLAQPGRSLRLSCAASGFKFDDYAMHWVRQAPGQGLEWVSGIDWNSGIIGYADSVMGRFTISRDNAKKSLYLQMNSLRAEDTALYYCAKSGGFGEFKWFDPWGQGTLVTVSS
VL: EIVMTQSPVTLSVSPGERATLSCRASQSVSGNLAWYQQKPGQAPRLLIYGASTRATGFPARFSGSGSGTEFTLTISRLQSEDFAVYYCQQYNKWPRTFGQGTKLEIK
In the case of B5, the Kd in assay [1] came to 133 nM. The same molecule gave a binding score in assay [2] of 45.1.

B6: C2698 (antibody, V domains shown)
VH: EVQLVESGGGLAQPGRSLRLSCAASGFKFDDYAMHWVRQVPGQGLEWVSGIDWNSGIIGYADSVMGRFTISRDNAKKSLYLQMNSLRTEDTALYYCAKSGGFGEFKWFDPWGQGTLVTVSS
VL: EIVMTQSPATLSVSPGERATLSCRASQSVSSNLAWYQQKPGQAPRLLIYGASTRATGFPARFSGSGSGTEFTLTISRLQSEDFAVYYCQQYNKWPRTFGQGTKLEIK
With B6, binding in assay [1] was put at a Kd of 152 nM. In assay [2], the binding score worked out at 79.2.

B7: D005 (antibody, V domains shown)
VH: QVQLVQSGAEVKKPGASVKVSCKASGYTFTNYYIHWVRQAPGQGLEWMGIINPSAGSTTYAQKFQGRVTMTSDTSTSTVYMELSSLRSEDTAVYYCARAGELIPAARASFQHWGQGTLVTVSS
VL: DIQMTQSPSTLSASVGDRVTITCRASQSISTWLAWYQQKPGKAPKILIYKASSLESGVPSRFSGSGSGTEFTLTLSSLQPDDFATYYCQQYNSYSPTFGQGTKVEIK
B7 displayed a Kd in assay [1] of 49.8 nM. This molecule also gave a binding score in assay [2] of 96.

B8: C2710 (antibody, V domains shown)
VH: EVQLVESGGGLVQPGGSLRLSCAASGFTFSSYWMSWVRQAPGKGLEWVANINQDGSEIHYVDSVKGRFTISRDNAKNSLYLQMNSLRAEDTAVYYCAREGGPYDFWSGSNWFDPWGQGTLVTVSS
VL: QSALTQPASVSGSPGQSITISCTGTSSDVGGYNFVSWYQQRPGKAPKLMIYEVHNRPSGVSNHFSGSKSGNTASLTISGLQAEDEADYYCSSYTSNSLYVFGTGTKVTVL
In turn, B8 displayed a Kd in assay [1] of 11.9 nM. The same molecule showed a binding score in assay [2] of 9.12.

B9: C2726 (antibody, V domains shown)
VH: EVQLVQSGAEVKKPGESLKISCKGSGYSFTSYWIGWVRQMPGKGLEWMGIIYPGDSDTRYSPSFQGQVTISADKSISTAYLQWSSLKASDTAMYYCARRTAARTNGVCLDYWGQGTLVTVSS
VL: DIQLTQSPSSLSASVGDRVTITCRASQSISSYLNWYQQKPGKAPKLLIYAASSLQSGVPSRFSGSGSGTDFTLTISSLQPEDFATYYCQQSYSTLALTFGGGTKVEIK
Consider B9, for which binding in assay [1] was put at a Kd of 133 nM. This molecule returned a binding score in assay [2] of 3440.

B10: D069 (antibody, V domains shown)
VH: QVQLVESGGGVVQPGGSLRLSCAASGFTFNIYGMHWVRQAPGKGLEWVAFIRYDGSNKYYADSVKGRFTISRDNSKNTLYLQMNSLRAEDTAVYYCAKSVGYYASGSYYFDYWGQGTLVTVSS
VL: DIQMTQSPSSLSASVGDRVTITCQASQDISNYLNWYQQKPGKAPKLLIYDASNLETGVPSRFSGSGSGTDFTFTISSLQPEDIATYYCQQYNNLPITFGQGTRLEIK
The molecule B10 gave a Kd in assay [1] of 140 nM. In assay [2], this molecule displayed a binding score of 252.

B11: D044 (antibody, V domains shown)
VH: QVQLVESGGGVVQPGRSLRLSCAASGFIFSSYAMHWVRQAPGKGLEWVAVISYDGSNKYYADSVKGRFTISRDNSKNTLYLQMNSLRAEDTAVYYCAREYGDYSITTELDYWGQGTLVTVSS
VL: QSVLTQPPSVSGAPGQRVTISCTGSSSNIGAGYDVHWYQQLPGTAPKLLIYGNSNRPSGVPDRFSGSKSGTSASLAITGLQAEDEADYYCQSYDSSLSGYVFGTGTKVTVL
In turn, B11 came in with a Kd in assay [1] of 56.9 nM. Also, in assay [2], the binding score amounted to 266.

B12: D058 (antibody, V domains shown)
VH: QVQLQESGPGLVKPSETLSLTCTVSGYSISSGYYWGWIRQPPGKGLEWIGSIYHSGSTYYNPSLKSRVTISVDTSKNQFSLKLSSVTAADTAVYYCARDFPLTLYGVLISDAFDIWGQGTMVTVSS
VL: SYELTQPPSVSVSPGQTARITCSADALPKQYAYWYQQKPGQAPVLVIYKDSERPSGIPERFSGSSSGTTVTLTISGVQAEDEADYYCQSADSSGKVFGGGTKLTVL
The molecule B12 gave a Kd in assay [1] of 24.1 nM. In assay [2], the binding score is 84.8.

B13: D166 (antibody, V domains shown)
VH: EVQLVESGGGLVQPGGSLRLSCAASGFTFSSYDMHWVRQATGKGLEWVSAIGTAGDTYYPGSVKGRFTISRENAKNSLYLQMNSLRAGDTAVYYCARVSYDSSGYYWVFDYWGQGTLVTVSS
VL: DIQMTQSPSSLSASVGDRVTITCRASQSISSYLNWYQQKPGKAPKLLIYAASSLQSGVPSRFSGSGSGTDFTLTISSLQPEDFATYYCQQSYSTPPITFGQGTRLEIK
Regarding B13, the binding score in assay [2] amounted to 2870.

B14: C2722 (antibody, V domains shown)
VH: EVQLVESGGGLVQPGGSLRLSCAASGFTFSSYSMNWVRQAPGKGLEWVSYISSSSSTIYYADSVKGRFTISRDNAKNSLYLQMNSLRAEDTAVYYCARDDGGGAYYDFWSGYYGDYWGQGTLVTVSS
VL: EIVLTQSPATLSLSPGERATLSCRASQSVSSYLAWYQQKPGQAPRLLIYDASNRATGIPARFSGSGSGTDFTLTISSLEPEDFAVYYCQQRSNWPPFTFGPGTKVDIK
In assay [1], B14 gave a Kd of 43.3 nM. Moreover, in assay [2], the binding score was determined as 177.

B15: D100 (antibody, V domains shown)
VH: QVQLVQSGAEVKKPGASVKVSCKASGYTFTSYGISWVRQAPGQGLEWMGWISAYNGNTNYAQKLQGRVTMTTDTSTSTAYMELRSLRSDDTAVYYCARVPDRRETPYYDFWSGYSIFDYWGQGTLVTVSS
VL: DIQMTQSPSSLSASVGDRVTITCRASQGISNYLAWFQQKPGKAPKSLIYAASSLQSGVPSKFSGSGSGTDFTLTISSLQPEDFATYYCQQYNSYPLTFGGGTKVEIK
For B15, in assay [1], binding was put at a Kd of 530 nM. In assay [2], this molecule yielded a binding score of more than 10000.

B16: D102 (antibody, V domains shown)
VH: QVQLVESGGGVVQPGGSLRLSCAASGFTFSSYGMHWVRQAPGKGLEWVAFIRYDGSNKYYADSVKGRFTISRDNSKNTLYLQMNSLRAEDTAVYYCAKTLGYYYDSSGYYLDYWGQGTLVTVSS
VL: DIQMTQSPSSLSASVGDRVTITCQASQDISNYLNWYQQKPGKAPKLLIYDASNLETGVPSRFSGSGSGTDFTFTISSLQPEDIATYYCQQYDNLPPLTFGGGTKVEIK
The molecule B16 came in with a Kd in assay [1] of 49.1 nM. In addition, in assay [2], the binding score amounted to 22.3.

B17: D032 (antibody, V domains shown)
VH: QVQLVESGGGVVQPGRSLRLSCAASGFTFSSYGMHWVRQAPGKGLEWVAVISYDGSNKYYADSVKGRFTISRDNSKNTLYLQMNSLRAEDTAVYYCAKVETVVDSDYYYYYGMDVWGQGTTVTVSS
VL: SYVLTQPPSVSVSPGQTARITCSGDALPKQYAYWYQQKPGQAPVLVIYKDSERPSGIPERFSGSSSGTTVTLTISGVQAEDEADYYCQSADSSGTYWVFGGGTKLTVL
For the molecule B17, the binding score in assay [2] is more than 10000.

B18: D162 (antibody, V domains shown)
VH: QVQLVESGGGVVQPGGSLRLSCAASGFTFSSYGMHWVRQAPGKGLEWVAFIRYDGSNKYYADSVKGRFTISRDNSKNTLYLQMNSLRAEDTAVYYCAKDQYYYGSGSYPWFDPWGQGTLVTVSS
VL: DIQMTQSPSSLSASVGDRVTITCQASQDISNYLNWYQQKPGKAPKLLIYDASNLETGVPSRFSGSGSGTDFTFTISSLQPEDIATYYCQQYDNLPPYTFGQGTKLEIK
In assay [1], B18 returned a Kd of 1440 nM. For the same molecule, the binding score in assay [2] stood at 958.

B19: D001 (antibody, V domains shown)
VH: QVQLVESGGGVVQPGRSLRLSCAASGFTFSSYGMHWVRQAPGKGLEWVAVISYDGSNKYYVDSVKGRFTISRDNSKNTLYLQMNSLRAEDTAVYYCAKEGGSYYGGGGYFDYWGQGTLVTVSS
VL: DIQMTQSPSSLSASVGDRVTITCQASQDISNYLHWYQQKPGKAPKLLIYDASNLETGVPSRFSGSGSGTDFTLTISSLQPEDIATYYCQQYDNLPYTFGQGTKLEIK
B19 showed a Kd in assay [1] of 16.6 nM. Also, the binding score in assay [2] turned out to be 77.6.

B20: C2706 (antibody, V domains shown)
VH: EVQLVESGGGVVQPGGSLRLSCAASGFTFSSYGMHWVRQAPGKGLEWVAFIRYDGSNKYYADSVKGRFTISRDNSKNTLYLQMNSLRAEDTAVYYCAKVGGRYSGYEGYFDYWGQGTLVTVSS
VL: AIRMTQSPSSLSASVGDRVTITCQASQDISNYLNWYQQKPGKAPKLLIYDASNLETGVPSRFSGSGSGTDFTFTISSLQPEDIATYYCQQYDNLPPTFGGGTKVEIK
Molecule B20 had a binding score in assay [2] of more than 10000.

B21: D040 (antibody, V domains shown)
VH: QVQLVESGGGVVQPGRSLRLSCAASGFTFSSYGMHWVRQAPGKGLEWVTAISYDGSNKYYADSVRGRFTISRDNSKRTLYLQMNSLRAEDTAVYYCAKGVGPYCSGGSCYSPYFDYWGQGTLVTVSS
VL: DIQMTQSPSSLSASIGDRVTITCQANQDISNYLNWYQQKPRKAPKLLIYDASDLETGVPSRFSGSGSGTDFTFTISSLQPEDIATYYCQQSDNLPLTFGGGTKVEIK
Take B21: in assay [1], binding was characterised by a dissociation constant (Kd) of 32 nM. The binding score in assay [2] turned out to be 7.71.

B22: C2697 (antibody, V domains shown)
VH: EVQLVESGGGLVQPGGSLRLSCAASGFTFSSSYSMNWVRQAPGKGLEWVSYISSSSSTIYYADSVKGRFTISRDNAKNSLYLQMNSLRDEDTAVYYCARHYGDKTYYFYGMDVWGQGTTVTVSS
VL: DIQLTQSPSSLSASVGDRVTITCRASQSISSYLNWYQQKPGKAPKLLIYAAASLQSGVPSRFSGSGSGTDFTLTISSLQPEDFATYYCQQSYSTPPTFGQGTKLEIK
Turning to B22, the Kd in assay [1] was found to be 101 nM. Besides, the binding score in assay [2] came to 2060.

B23: D104 (antibody, V domains shown)
VH: QVQLQQWGAGLLKPSETLSLTCAVYGESFSGHYWTWIRQPPGKGLEWIGEINHRGSTDYHASLKSRVSISIDTSKNQFSLRLKSVTAAETAIYYCARGRSAWPRRSFAFWGQGILVTVSS
VL: DIQMTQSPSTLSASVGDRVTITCRASQSISTSLAWYQQKPGKAPKLLIYESSTLESGIPSRFSGSGFRTGFTLTISSLQPDDVATYYCQHYNASPYTFGQGTKLEIK
In assay [2], B23 registered a binding score of more than 10000.
